Positions count from the first letter of the chain named. Each block holds one binder with its values, some of them ahead of it.
Key:
[1] = molecular target: T1, membrane human CD89 on ex vivo primary human neutrophilic granulocytes or monocytic U937 cells (human, UniProt P24071 22-287); experiment: cell-based or functional assay
[2] = molecular target: T2, membrane full-length cynomolgus monkey CD89 on HEK293F cells (cynomolgus monkey); experiment: FACS, transiently transfected HEK293F
T2 construct: also called cynoCD89; cynomolgus EC1-CD89
T2 chain: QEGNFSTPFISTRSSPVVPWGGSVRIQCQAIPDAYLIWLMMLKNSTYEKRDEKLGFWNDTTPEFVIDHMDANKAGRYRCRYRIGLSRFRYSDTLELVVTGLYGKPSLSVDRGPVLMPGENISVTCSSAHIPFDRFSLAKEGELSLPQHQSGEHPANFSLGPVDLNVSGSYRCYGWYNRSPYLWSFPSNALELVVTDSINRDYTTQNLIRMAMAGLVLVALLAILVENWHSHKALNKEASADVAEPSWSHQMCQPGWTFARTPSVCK
Procedure: To this end, transient transfected HEK293F cells were put at 10 x 10⁶ cells/mL in ice-chilled phosphate-buffered saline containing 0.1% BSA (Sigma)/0.05% NaN₃ (PBS/BSA/NaN₃) supplemented with 50 µg/mL human IgGs (blocking FcY receptors; Sigma) for 10 minutes at 4° C. Then, 10 µL/tube (i.e., 0.1 × 10⁶ cells) of these cells were incubated with or without 100 µL purified mouse anti-human CD89 antibody at 10 µg/mL (in PBS/BSA/NaN₃) for 30 minutes at 4° C. […] After extensive washing in PBS/BSA/NaN₃, cells were subsequently incubated with 1:200 diluted PE-conjugated goat anti-mouse IgG Fcy-specific antibodies (Jackson ImmunoResearch) for 30 minutes at 4° C. After extensive washing in PBS/BSA/NaN₃, cells were fixed in 2% formaldehyde in PBS/BSA/NaN₃ for 30 minutes at 4° C.

[3] = molecular target: T3, chimeric human/cynomolgus monkey CD89-hotspots on HEK293F cells (human/cynomolgus chimera, UniProt P24071 22-287); experiment: FACS, 10 µg/mL, transiently transfected HEK293F
T3 construct: also called dThr58, Gln59; dArg73, Arg74, Lys76
T3 chain: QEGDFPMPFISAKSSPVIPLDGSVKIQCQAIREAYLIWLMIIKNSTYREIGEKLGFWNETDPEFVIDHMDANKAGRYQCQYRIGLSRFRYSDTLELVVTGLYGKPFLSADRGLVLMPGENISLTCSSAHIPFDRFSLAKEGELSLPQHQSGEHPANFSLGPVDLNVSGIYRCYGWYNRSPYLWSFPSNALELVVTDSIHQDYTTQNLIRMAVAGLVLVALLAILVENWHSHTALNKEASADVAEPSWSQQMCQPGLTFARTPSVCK
Procedure: (§1) To this end, transient transfected HEK293F cells were put at 10 × 10⁶ cells/mL in ice-chilled phosphate-buffered saline containing 0.1% BSA (Sigma)/0.05% NaN₃ (PBS/BSA/NaN₃) supplemented with 50 µg/mL human IgGs (blocking FcY receptors; Sigma) for 10 minutes at 4° C. Then, 10 µL/tube (i.e., 0.1 × 10⁶ cells) of these cells were incubated with or without 100 µL purified mouse anti-human CD89 antibody at 10 µg/mL (in PBS/BSA/NaN₃) for 30 minutes at 4° C. […] After extensive washing in PBS/BSA/NaN₃, cells were subsequently incubated with 1:200 diluted PE-conjugated goat anti-mouse IgG Fcy-specific antibodies (Jackson ImmunoResearch) for 30 minutes at 4° C. After extensive washing in PBS/BSA/NaN₃, cells were fixed in 2% formaldehyde in PBS/BSA/NaN₃ for 30 minutes at 4° C.

[4] = molecular target: T4, chimeric human/cynomolgus monkey CD89-I on HEK293F cells (human/cynomolgus chimera, UniProt P24071 22-287); experiment: FACS, 10 µg/mL, transiently transfected HEK293F
T4 construct: also called dGln22 - Lys46 human EC1-CD89; I (22-46)
T4 chain: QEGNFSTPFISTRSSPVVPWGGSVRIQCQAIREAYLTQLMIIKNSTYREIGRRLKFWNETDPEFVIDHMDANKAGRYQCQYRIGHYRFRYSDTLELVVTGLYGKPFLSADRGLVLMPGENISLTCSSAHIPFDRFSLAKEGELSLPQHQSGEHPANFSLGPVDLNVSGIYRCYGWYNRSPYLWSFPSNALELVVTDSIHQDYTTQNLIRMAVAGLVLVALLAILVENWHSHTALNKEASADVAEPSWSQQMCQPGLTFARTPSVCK
Procedure: as §1

[5] = molecular target: T5, chimeric human/cynomolgus monkey CD89-III on HEK293F cells (human/cynomolgus chimera, UniProt P24071 22-287); experiment: FACS, 10 µg/mL, transiently transfected HEK293F
T5 construct: also called dGly72 - Gly96 human EC1-CD89; III (72-96)
T5 chain: T3 chain with I37T, W38Q, G51D, E59D, D61T, L85H, S86Y
Procedure: as §1

[6] = molecular target: T6, chimeric human/cynomolgus monkey CD89-II on HEK293F cells (human/cynomolgus chimera, UniProt P24071 22-287); experiment: FACS, 10 µg/mL, transiently transfected HEK293F
T6 construct: also called dIle47 - Ile71 human EC1-CD89; II (47-71)
T6 chain: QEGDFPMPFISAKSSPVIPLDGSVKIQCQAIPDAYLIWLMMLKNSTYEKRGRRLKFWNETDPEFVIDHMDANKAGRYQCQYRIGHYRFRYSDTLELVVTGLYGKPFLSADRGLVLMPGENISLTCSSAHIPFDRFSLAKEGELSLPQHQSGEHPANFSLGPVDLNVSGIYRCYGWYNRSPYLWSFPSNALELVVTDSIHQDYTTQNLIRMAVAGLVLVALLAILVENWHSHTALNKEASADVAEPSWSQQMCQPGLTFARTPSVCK
Procedure: as §1

[7] = molecular target: T7, membrane-bound full-length human CD89 on HEK293F cells (human, UniProt P24071 22-287); experiment: FACS HEK293F-huCD89, 10 ug/mL; competitor PE-MIP8a
T7 construct: 2 or transient transfectants; also called membrane human CD89; human FcaRI
Procedure: (§2) Then, 10 µL/tube (i.e., 0.1 × 10⁶ cells) of these cells were incubated with or without 100 µL purified mouse anti-human CD89 antibody at 10 µg/mL (in PBS/BSA/NaN₃) for 30 minutes at 4° C. […] After extensive washing in PBS/BSA/NaN₃, cells were fixed in 2% formaldehyde in PBS/BSA/NaN₃ for 30 minutes at 4° C.

[8] = molecular target: T8, recombinant C-terminal polyhistidine-tagged human (extracellular) CD89 (Sino Biological) (human, UniProt P24071 22-227); experiment: ELISA on coated rhuCD89
T8 construct: extracellular domain; bought protein; also called rhuCD89; soluble monomeric rhuCD89
Procedure: (§3) After extensive washing with PBS/0.05% Tween 20, plates were blocked with PBS/0.05% Tween 20/1% BSA (Roche) for 1 hour at RT. Subsequently, plates were incubated with 50 µL titrated (in block buffer) purified mouse anti-human CD89 antibody/well for 1 hour at RT. […] After extensive washing in PBS/0.05% Tween 20, binding of antibodies on rhuCD89 was determined with 1:5,000 diluted horseradish peroxidase (HRP)-conjugated goat anti-mouse IgG Fcy-specific antibodies (Jackson ImmunoResearch) for 1 hour at RT, followed by a ready-to-use solution of TMB substrate (Invitrogen) for colorimetric detection.

[9] = molecular target: T7, membrane-bound full-length human CD89 …; experiment: FACS, antibody before serum IgA on HEK293F-huCD89; IgA detected
Procedure: Then, 10 µL/tube (i.e., 0.1 x 10⁶ cells) of these cells were incubated with 50 µL titrated (in PBS/BSA/NaN₃) purified mouse anti-human CD89 antibody/tube for 30 minutes at 4° C. […] After extensive washing in PBS/BSA/NaN₃, 1:200 diluted PE-conjugated streptavidin (Jackson ImmunoResearch) was added, and incubated for 30 minutes at 4° C. After extensive washing in PBS/BSA/NaN₃, cells were fixed in 2% formaldehyde in PBS/BSA/NaN₃ for 30 minutes at 4° C.

[10] = molecular target: T9, chimeric bovine EC1-Fcgamma2R/human EC2-CD89 on HEK293F cells (bovine/human chimera); experiment: FACS, transiently transfected HEK293F
T9 chain: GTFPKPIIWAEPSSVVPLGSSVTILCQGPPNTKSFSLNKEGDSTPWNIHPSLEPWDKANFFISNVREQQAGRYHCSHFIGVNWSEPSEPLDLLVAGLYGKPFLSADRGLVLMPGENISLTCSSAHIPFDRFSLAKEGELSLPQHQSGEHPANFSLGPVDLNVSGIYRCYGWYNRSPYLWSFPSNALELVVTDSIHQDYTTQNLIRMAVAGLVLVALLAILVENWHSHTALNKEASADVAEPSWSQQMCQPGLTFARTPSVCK

[11] = molecular target: T7, membrane-bound full-length human CD89 …; experiment: FACS, unlabelled antibody before A3-PE on HEK293F-huCD89
[12] = molecular target: T1, membrane human CD89 on ex vivo primary …; experiment: cell-based or functional assay; remark: listed apart in the source
[13] = molecular target: T7, membrane-bound full-length human CD89 …; experiment: FACS, antibody before secretory IgA on HEK293F-huCD89; IgA detected
Procedure: Then, 10 µL/tube (i.e., 0.1 x 10⁶ cells) of these cells were incubated with or without 50 µL titrated (in PBS/BSA/NaN₃) purified mouse anti-human CD89 antibody/tube for 30 minutes at 4° C. […] After extensive washing in PBS/BSA/NaN₃, 1:200 diluted PE-conjugated streptavidin (Jackson ImmunoResearch) was added, and incubated for 30 minutes at 4° C. After extensive washing in PBS/BSA/NaN₃, cells were fixed in 4% formaldehyde in PBS/BSA/NaN₃ for 30 minutes at 4° C.

[14] = molecular target: T7, membrane-bound full-length human CD89 …; experiment: FACS HEK293F-huCD89, 10 ug/mL; competitor PE-A59
Procedure: as §2

[15] = molecular target: T6, chimeric human/cynomolgus monkey …; experiment: FACS, transiently transfected HEK293F
Procedure: as §1

[16] = molecular target: T7, membrane-bound full-length human CD89 …; experiment: FACS, unlabelled antibody before MIP8a-PE on HEK293F-huCD89
[17] = molecular target: T10, chimeric human/cynomolgus monkey CD89-IV on HEK293F cells (human/cynomolgus chimera, UniProt P24071 22-287); experiment: FACS, 10 µg/mL, transiently transfected HEK293F
T10 construct: also called dArg97 - Gly121 human EC1-CD89
T10 chain: T3 chain with I37T, W38Q, E52R, K53R, G55K, Q78R, Q80R
Procedure: as §1

[18] = molecular target: T7, membrane-bound full-length human CD89 …; experiment: FACS on HEK293F-huCD89
Procedure: Then, 10 µL/tube (i.e., 0.1 x 10⁶ cells) of these cells were incubated with 100 µL titrated (in PBS/BSA/NaN₃) purified mouse anti-human CD89 antibody/tube for 30 minutes at 4° C. […] After extensive washing in PBS/BSA/NaN₃, cells were subsequently incubated with 1:200 diluted PE-conjugated goat anti-mouse IgG Fcy-specific antibodies (Jackson ImmunoResearch) for 30 minutes at 4° C. After extensive washing in PBS/BSA/NaN₃, cells were fixed in 2% formaldehyde in PBS/BSA/NaN₃ for 30 minutes at 4° C.

[19] = molecular target: T7, membrane-bound full-length human CD89 …; experiment: FACS HEK293F-huCD89, 10 ug/mL; competitor PE-A3
Procedure: as §2

[20] = molecular target: T8, recombinant C-terminal …; experiment: ELISA, coated rhuCD89
Procedure: as §3
After extensive washing with PBS/0.05% Tween 20, plates were blocked with PBS/0.05% Tween 20/1% BSA (Roche) for 1 hour at RT. […] After extensive washing in PBS/0.05% Tween 20, binding of antibodies on rhuCD89 was determined with 1:5,000 diluted horseradish peroxidase (HRP)-conjugated goat anti-human IgG Fcy-specific antibodies (Jackson ImmunoResearch) for 1 hour at RT, followed by a ready-to-use solution of TMB substrate (Invitrogen) for colorimetric detection.

[21] = molecular target: T7, membrane-bound full-length human CD89 …; experiment: FACS HEK293F-huCD89
Procedure: After extensive washing in PBS/BSA/NaN₃, cells were subsequently incubated with 1:200 diluted PE-conjugated goat anti-human IgG Fcy-specific antibodies (Jackson ImmunoResearch) for 30 minutes at 4° C. After extensive washing in PBS/BSA/NaN₃, cells were fixed in 2% formaldehyde in PBS/BSA/NaN₃ for 30 minutes at 4° C.

[22] = molecular target: T8, recombinant C-terminal …; experiment: ELISA, antibody before serum IgA on coated rhuCD89; IgA detected
Procedure: After extensive washing with PBS/0.05% Tween 20, plates were blocked with PBS/0.05% Tween 20/1% BSA (Roche) for 1 hour at RT. Subsequently, plates were incubated with 25 µL titrated (in block buffer) purified mouse anti-human CD89 antibody/well for 30 minutes at RT. […] After extensive washing in PBS/0.05% Tween 20, 1:10,000 diluted HRP-conjugated streptavidin (Jackson ImmunoResearch) was added, and incubated for 1 hour at RT, followed by a ready-to-use solution of TMB substrate (Invitrogen) for colorimetric detection.

[23] = molecular target: T8, recombinant C-terminal …; experiment: ELISA, coated rhuCD89, supernatant
Procedure: After extensive washing with PBS/0.05% Tween 20, plates were blocked with PBS/0.05% Tween 20/1% BSA (Roche) for 1 hour at RT. […] After extensive washing in PBS/0.05% Tween 20, binding of antibodies on rhuCD89 was determined with 1:5,000 diluted horseradish peroxidase (HRP)-conjugated goat anti-human IgG Fcγ-specific antibodies (Jackson ImmunoResearch) for 1 hour at RT, followed by a ready-to-use solution of TMB substrate (Invitrogen) for colorimetric detection. After adding 1 M HCL, binding (optical density) of antibodies on rhuCD89 was measured at wavelength of 450 nm (reference wavelength of 655 nm) using a microplate reader (Synergy HTX; BioTek).

[24] = molecular target: T7, membrane-bound full-length human CD89 …; experiment: FACS HEK293F-huCD89, supernatant
Procedure: After extensive washing in PBS/BSA/NaN₃, cells were subsequently incubated with 1:200 diluted PE-conjugated goat anti-human IgG Fcγ-specific antibodies (Jackson ImmunoResearch) for 30 minutes at 4° C. After extensive washing in PBS/BSA/NaN₃, cells were fixed in 4% formaldehyde in PBS/BSA/NaN₃ for 30 minutes at 4° C.

IC50 (read off the bars), binding of granulocytes to plate-bound serum IgA [Donor 3] [1]: ~1 µg/mL
binding result [2]: no binding (tested: 10 µg/mL)
binding result [3]: binds
binding result [4]: binds
binding result [5]: binds
binding result [6]: binds
% blocking of PE-MIP8a binding [7]: > 90%
EC50 (read off the curve) [8]: ~0.008 µg/mL
IC50 (read off the curve) [9]: ~0.2 µg/mL
binding result [10]: no binding (tested: 10 µg/mL)
IC50 (read off the curve) [11]: ~0.3 µg/mL
IC50 (read off the bars), binding of granulocytes to plate-bound serum IgA [Donor 2] [12]: ~0.1 µg/mL
IC50 (read off the curve) [13]: ~0.3 µg/mL
B1: CD89/IgA blocking mouse anti-human CD89-specific antibody 26D6 (antibody, V domains shown)
VH: QIQLVQSGPELKKPGETVKISCKASGYTLTKYGMNWVKQAPGKGLKWMGWINTYTGEPTYADDFKGRFAFSLETSASTAYLQINNLKNEDTATYFCASLPLFGRDSFAYWGQGTLVTVSA
VL: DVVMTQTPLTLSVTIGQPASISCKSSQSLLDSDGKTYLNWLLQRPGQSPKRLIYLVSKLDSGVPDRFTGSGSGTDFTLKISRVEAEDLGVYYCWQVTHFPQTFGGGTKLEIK
notes: also called 26B6 [sic]

% blocking of PE-A59 binding [14]: < 25%
binding result [15]: no binding (tested: 10 µg/mL)
IC50 (read off the curve) [16]: ~1 µg/mL
binding result [3]: binds
binding result [4]: binds
binding result [5]: binds
binding result [17]: binds
EC50 (read off the curve) [18]: ~0.4 µg/mL
% blocking of PE-MIP8a binding [7]: > 90%
% blocking of PE-A3 binding [19]: < 25%
EC50 [20]: 0.029 µg/mL
IC50 (read off the curve) [9]: ~0.6 µg/mL
binding result [10]: no binding (tested: 10 µg/mL)
EC50 [21]: 0.484 µg/mL
IC50 (read off the bars), binding of granulocytes to plate-bound serum IgA [Donor 2] [12]: ~0.6 µg/mL
IC50 (read off the curve) [22]: ~0.1 µg/mL
IC50 (read off the curve) [13]: ~1 µg/mL
B2: CD89/IgA blocking mouse anti-human CD89-specific antibody 30C7 (antibody, V domains shown)
VH: QVQLQQSGPELVRPGVSVKISCKGSGYTFTDYVMHWVKQSHAKSLEWIGVISTYSGNTNYNQKFKGKATMTVDKSSSTAYMELARLTSEDSAIYYCARESDGYYFDYWGQGTTLTVSS
VL: DIVMSQSPSSLAVSAGEKVTMSCKSSQSLLNSRTRKNYLAWYQQKPGQSPKLLIYWASTRESGVPDRFTGSGSGTDFTLTISSVQAEDLAVYYCKQSYNLMYTFGGGTKLEIK

binding result [2]: no binding (tested: 10 µg/mL)
binding result [15]: no binding (tested: 10 µg/mL)
binding result [3]: binds
binding result [4]: binds
binding result [5]: binds
binding result [17]: binds
EC50 (read off the curve) [18]: ~0.2 µg/mL
% blocking of PE-MIP8a binding [7]: < 25%
EC50 [20]: 0.013 µg/mL
IC50 (read off the curve) [9]: ~0.3 µg/mL
binding result [10]: no binding (tested: 10 µg/mL)
EC50 [21]: 0.26 µg/mL
IC50 (read off the curve) [13]: ~0.4 µg/mL
B3: CD89/IgA blocking mouse anti-human CD89-specific antibody 20B4 (antibody, V domains shown)
VH: QVQLKESGPGLVAPSQSLSITCTVSGFSLTSYGVHWVRQPPGKGLEWLGIIWAGGSTSYNSALMSRLSISKDNSKSQVFLKMNSLQTDDTAMYYCARDHYDLFAYWGQGTLVTVSA
VL: DILMTQSPSSMSVSLGDTVSITCHASQDISRNIGWLQQKPGKSFKGLIYHGTNLEDGVPSRFSGSGSGADYSLTISSLESEDFADYYCVQYAQFPRTFGGGTKLEIK

EC50 [23]: ~0.02 µg/mL
EC50 [24]: ~1 µg/mL
B4: humanized IgG4/kappa anti-human CD89 monoclonal antibody 10E7 version VH3VL3 (antibody)
heavy: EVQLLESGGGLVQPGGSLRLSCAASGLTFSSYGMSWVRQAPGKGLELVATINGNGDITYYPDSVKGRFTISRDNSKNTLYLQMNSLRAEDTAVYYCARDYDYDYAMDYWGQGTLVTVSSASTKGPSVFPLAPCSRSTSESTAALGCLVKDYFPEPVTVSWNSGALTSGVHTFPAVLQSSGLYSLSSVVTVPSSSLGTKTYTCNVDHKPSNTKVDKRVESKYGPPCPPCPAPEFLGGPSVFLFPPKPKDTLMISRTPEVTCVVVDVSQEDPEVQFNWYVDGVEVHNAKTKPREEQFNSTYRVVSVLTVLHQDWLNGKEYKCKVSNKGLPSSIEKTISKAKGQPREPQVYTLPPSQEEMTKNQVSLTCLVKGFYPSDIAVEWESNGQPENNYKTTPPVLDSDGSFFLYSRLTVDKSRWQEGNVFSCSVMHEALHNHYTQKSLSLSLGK
light: DIQMTQSPSSLSASVGDRVTITCRASQDIINYLNWYQQKPGKAVKLLIYYTSRLHSGVPSRFSGSGSGTDYTLTISSLQPEDFATYYCQQGKTLPYTFGQGTKLEIKRTVAAPSVFIFPPSDEQLKSGTASVVCLLNNFYPREAKVQWKVDNALQSGNSQESVTEQDSKDSTYSLSSTLTLSKADYEKHKVYACEVTHQGLSSPVTKSFNRGEC
notes: tested as supernatant; signal peptide end derived as for m17

EC50 [23]: ~0.02 µg/mL
EC50 [24]: ~1 µg/mL
B5: humanized IgG4/kappa anti-human CD89 monoclonal antibody 10E7 version VH3VL4 (antibody)
heavy: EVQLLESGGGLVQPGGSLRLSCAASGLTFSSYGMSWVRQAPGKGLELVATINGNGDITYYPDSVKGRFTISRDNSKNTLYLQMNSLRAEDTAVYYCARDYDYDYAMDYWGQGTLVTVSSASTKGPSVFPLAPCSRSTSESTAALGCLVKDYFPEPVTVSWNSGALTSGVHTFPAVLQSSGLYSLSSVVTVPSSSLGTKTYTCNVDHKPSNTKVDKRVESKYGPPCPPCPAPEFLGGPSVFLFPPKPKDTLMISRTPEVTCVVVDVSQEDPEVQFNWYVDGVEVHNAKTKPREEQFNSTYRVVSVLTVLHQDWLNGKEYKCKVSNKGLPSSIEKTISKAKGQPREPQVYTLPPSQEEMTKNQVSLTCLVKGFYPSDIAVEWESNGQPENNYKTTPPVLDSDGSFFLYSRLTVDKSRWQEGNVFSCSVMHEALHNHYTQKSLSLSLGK
light: B4 light with A43T, Y87F
notes: as for B4
